Experiment in all cases: X-ray crystallography
In series [1] the target is T1, Δ30-EXO5 WT (Homo sapiens, UniProt Q9H790 31-373, del1-30).
T1 sequence: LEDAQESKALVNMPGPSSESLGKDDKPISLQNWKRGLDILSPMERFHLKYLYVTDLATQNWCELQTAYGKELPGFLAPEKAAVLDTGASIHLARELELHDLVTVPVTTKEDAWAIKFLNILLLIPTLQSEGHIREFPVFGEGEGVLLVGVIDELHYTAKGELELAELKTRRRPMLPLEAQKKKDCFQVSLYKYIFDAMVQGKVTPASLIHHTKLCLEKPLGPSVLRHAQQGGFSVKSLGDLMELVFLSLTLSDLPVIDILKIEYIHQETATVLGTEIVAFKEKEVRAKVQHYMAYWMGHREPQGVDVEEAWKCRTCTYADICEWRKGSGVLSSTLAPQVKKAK

A further series deals with T2, T88E-Δ30-EXO5 (Homo sapiens, UniProt Q9H790 31-373, T88E;del1-30).
T2 sequence: T1 sequence with T58E

In series [2] the target is T1, Δ30-EXO5 WT. This is another data set of the same source.

This is an account of results in publication PMC8720176.

Changes are numbered by the printed parent chain. Where two headings read alike, the source gives them in different places.

With TTTTTTTTTTTT (ssDNA, 3' thiol modifier C3 S-S) [dT12], the binding result in the series with Δ30-EXO5 WT [1] and with T88E-Δ30-EXO5 was “binds” in each case.
ATTGCTGAAGGG (ssDNA) [12mer]: the binding result in the series with Δ30-EXO5 WT [2] is recorded as “binds”.
